# Results reported in FireProtDB (doi:10.1038/s41598-019-41819-5).
# Several values for one entry are separate records, joined by “and”; a condition that tells them apart may be missing. Identical values can stand only once.
# B1: Forkhead box protein P1, Q9H334 (parent)
# chain: MMQESGTETKSNGSAIQNGSGGSNHLLECGGLREGRSNGETPAVDIGAADLAHAQQQQQQALQVARQLLLQQQQQQQVSGLKSPKRNDKQPALQVPVSVAMMTPQVITPQQMQQILQQQVLSPQQLQVLLQQQQALMLQQQQLQEFYKKQQEQLQLQLLQQQHAGKQPKEQQQVATQQLAFQQQLLQMQQLQQQHLLSLQRQGLLTIQPGQPALPLQPLAQGMIPTELQQLWKEVTSAHTAEETTGNNHSSLDLTTTCVSSSAPSKTSLIMNPHASTNGQLSVHTPKRESLSHEEHPHSHPLYGHGVCKWPGCEAVCEDFQSFLKHLNSEHALDDRSTAQCRVQMQVVQQLELQLAKDKERLQAMMTHLHVKSTEPKAAPQPLNLVSSVTLSKSASEASPQSLPHTPTTPTAPLTPVTQGPSVITTTSMHTVGPIRRRYSDKYNVPISSADIAQNQEFYKNAEVRPPFTYASLIRQAILESPEKQLTLNEIYNWFTRMFAYFRRNAATWKNAVRHNLSLHKCFVRVENVKGAVWTVDEVEFQKRRPQKISGNPSLIKNMQSSHAYCTPLNAALQASMAENSIPLYTTASMGNPTLGNLASAIREELNGAMEHTNSNESDSSPGRSPMQAVHPVHVKEEPLDPEEAEGPLSLVTTANHSPDFDHDRDYEDEPVNEDME
# Variants of: B1
# Conditions: Homo sapiens, 37 °C, GdnHCl, fluorescence, transition: 3, structure 2KIU, whole UniProt chain shown
variant,measurement,setting,value
V539C,denaturant m value,pH 5,3.1 kcal/mol/M and 1.1 kcal/mol/M
same,unfolding free energy,pH 5,1.4 kcal/mol and 4.2 kcal/mol
S518C,denaturant m value,pH 5,3.2 kcal/mol/M and 1.4 kcal/mol/M
same,denaturant m value,pH 7.8,2.7 kcal/mol/M and 2 kcal/mol/M
H520A,denaturant m value,pH 5,5.8 kcal/mol/M
same,unfolding free energy,pH 5,17.9 kcal/mol
same,denaturant m value,pH 7.8,6.6 kcal/mol/M
same,unfolding free energy,pH 7.8,20.2 kcal/mol
